This note sets out measurements from publication PMC9119168.

Chain of MERS-CoV Mac1, His-tagged (domain or fragment) (K9N638 1110-1276 limits assumed): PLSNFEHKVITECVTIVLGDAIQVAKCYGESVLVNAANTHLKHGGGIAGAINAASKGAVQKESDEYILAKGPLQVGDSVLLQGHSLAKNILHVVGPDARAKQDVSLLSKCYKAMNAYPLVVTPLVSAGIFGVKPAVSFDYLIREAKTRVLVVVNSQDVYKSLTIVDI

This assay addresses 10 amino acid biotinylated and ADP-ribosylated peptide [ARTK(Bio)QTARK (Aoa-RADP)S]. In words: AlphaScreen or HTRF. (In general: In Alpha technology, singlet oxygen from a donor bead excites a nearby acceptor bead.)
“MERS-CoV Mac1, His-tagged (domain or fragment)” gave a macrodomain concentration at the maximum AS signal of 1.25 to 2.5 µM. The same measure for “SARS-CoV Mac1, His-tagged (domain or fragment)”: 1.25 to 2.5 µM; for “SARS-CoV-2 Mac1 (conserved macrodomain of non-structural protein 3), His-tagged (from UniProt P0DTD1) (domain or fragment)”: 0.625 µM. The same measure for “human macrodomain Mdo2, His-tagged (domain or fragment)”: 0.04 µM.
